Laboratory results published in patent US20180044415A1 (AbbVie / Abbott, published 2018).

T1: DLL3 extracellular domain (amino acids 27-466) displayed on yeast (human, UniProt Q9NYJ7 27-466)
T1 construct: Yeast surface display construct with HA tag; also called DLL3 ECD; wild type DLL3 ECD
T1 sequence: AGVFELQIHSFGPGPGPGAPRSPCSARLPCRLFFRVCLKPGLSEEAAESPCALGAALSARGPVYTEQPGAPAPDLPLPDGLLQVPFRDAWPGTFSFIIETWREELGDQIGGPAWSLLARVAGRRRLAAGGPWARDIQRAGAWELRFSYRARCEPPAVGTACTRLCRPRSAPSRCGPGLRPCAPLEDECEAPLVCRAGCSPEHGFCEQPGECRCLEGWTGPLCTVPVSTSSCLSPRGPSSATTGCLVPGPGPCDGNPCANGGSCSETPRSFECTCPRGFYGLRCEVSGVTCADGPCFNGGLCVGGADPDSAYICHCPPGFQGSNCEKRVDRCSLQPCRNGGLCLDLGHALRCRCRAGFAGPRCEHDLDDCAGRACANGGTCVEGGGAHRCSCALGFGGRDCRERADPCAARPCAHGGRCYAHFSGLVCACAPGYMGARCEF

T2: human DLL3 (immobilized human DLL3 or h293-hDLL3 cells) (human, UniProt Q9NYJ7 27-492, limits assumed)
T2 construct: the sentence says 'immobilized human DLL3 or h293-hDLL3 cells'
T2 sequence: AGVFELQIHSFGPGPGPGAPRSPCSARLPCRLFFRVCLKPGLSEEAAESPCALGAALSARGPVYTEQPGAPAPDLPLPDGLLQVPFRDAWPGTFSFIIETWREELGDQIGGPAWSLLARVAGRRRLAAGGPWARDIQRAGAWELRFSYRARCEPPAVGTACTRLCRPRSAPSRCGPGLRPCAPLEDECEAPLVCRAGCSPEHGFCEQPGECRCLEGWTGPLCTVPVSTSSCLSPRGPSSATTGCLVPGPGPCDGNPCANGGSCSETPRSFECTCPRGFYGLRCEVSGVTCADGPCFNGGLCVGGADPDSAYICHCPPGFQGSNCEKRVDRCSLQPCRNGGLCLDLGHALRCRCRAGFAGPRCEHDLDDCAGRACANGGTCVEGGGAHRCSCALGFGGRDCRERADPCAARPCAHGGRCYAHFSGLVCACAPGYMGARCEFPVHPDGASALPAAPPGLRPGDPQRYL


What was measured:
[1] = biological target: T1, DLL3 extracellular domain (amino acids …); assay: fine epitope mapping
Procedure: To test for binding to a particular construct, 200,000 induced yeast cells expressing the desired construct were washed twice in PBS+1 mg/mL BSA (PBSA), and incubated in 50 μL of PBSA with biotinylated anti-HA clone 3F10 (Roche Diagnostics) at 0.1 μg/mL and either 50 nM purified antibody or 1:2 dilution of unpurified supernatant from hybridomas cultured for 7 days. Cells were incubated for 90 minutes on ice, followed by two washes in PBSA. Cells were then incubated in 50 μL PBSA with the appropriate secondary antibodies: for murine antibodies, Alexa 488 conjugated streptavidin, and Alexa 647 conjugated goat anti mouse (Life Technologies) were added at 1 μg/mL each; and for humanized or chimeric antibodies, Alexa 647 conjugated streptavidin (Life Technologies) and R-phycoerythrin conjugated goat anti human (Jackson Immunoresearch) were added at 1 μg/mL each. After a twenty minute incubation on ice, cells were washed twice with PBSA and analyzed on a FACS Canto II. Antibodies that bound to DLL3-DLL1 chimera were designated as binding to the N-terminal region+DSL. Antibodies that bound specifically to an epitope present on a particular EGF-like domain were designated as binding to its respective domain (FIG. 2.)
Alternatively, a yeast display method (Chao et al., 2007, PMID: 17406305) was used to map the epitopes of selected antibodies. Libraries of DLL3 ECD mutants were generated with error prone PCR using nucleotide analogues 8-oxo-2′deoxyguanosine-5′-triphosphate and 2′-deoxy-p-nucleoside-5′triphosphate (TriLink Bio) for a target mutagenesis rate of one amino acid mutation per clone. These were transformed into a yeast display format. Using the technique described above for domain-level mapping, the library was stained for HA and antibody binding at 50 nM. […] These clones were re-grown, and subjected to another round of FACS sorting for loss of binding to the target antibody. Using the Zymoprep Yeast Plasmid Miniprep kit (Zymo Research), individual ECD clones were isolated and sequenced. […]

[2] = biological target: T2, human DLL3 (immobilized human DLL3 or …); assay: hybridoma screening on immobilized human DLL3 or on h293-hDLL3 cells

| binding result [1] | binding result [2] | Binder |
| --- | --- | --- |
| binds | binds | SC16.23 (antibody, V domains shown, murine mAb; variable regions only) VH: QVTLKESGPGILQPSQTLSLTCSFSGFSLSTSNTGIGWIRQPSGTGLEWLAHIWWNDDKYYNPSLKSRLTISKETSNNQVFLKITNVDTADTASYFCVQIGRDYSNYAWYFDVWGAGTTVTVSS VL: QIVLTQSPAIMSASPGEKVTLTCSASSSVSSRYLYWYQQKPGSSPKLWIYSTSNLASGVPARFSGSGSGTSYSLIISSMEAEDAASYFCHQWSNYPLTFGAGTKLELK |
| binds | binds | SC16.34 (antibody, V domains shown, murine mAb; variable regions only) VH: QIQLVQSGPELKRPGETVKISCKASGYTFTNYGMNWVKQAPGKGLKWMGWINTYTGDPTYADDFKGRFAFSLETSASTAYLQINNLKNEDTATYFCARIGGNSPSDYWGQGTSLTVSS VL: SIVMTQTPKFLLVSAGDRVTITCKASQSVSNDVAWYQQKPGQSPKLLIYYASNRYSGVPDRFTGSGYGTDFTFTISTVQAEDLAVYFCQQDYSSPWTFGGGTKLEIK |
| binds | binds | SC16.56 (antibody, V domains shown, murine mAb; variable regions only) VH: QIQLVQSGPELKKPGETVKISCKASGYTFTNYGMNWVKQAPGKGLKWMAWINTYTGEPTYADDFKGRFAFSLETSASTASLQIINLKNEDTATYFCARIGDSSPSDYWGQGTTLTVSS VL: SIVMTQTPKFLLVSAGDRVTITCKASQSVSNDVVWYQQKPGQSPKLLIYYASNRYTGVPDRFAGSGYGTDFSFTISTVQAEDLAVYFCQQDYTSPWTFGGGTKLEIR |
